The test system of the data set is MS2 coat protein. The data set is described as follows: apparent KD of MS2 coat protein; designed switch direction (-1 OFF switch, 1 ON switch): 1; higher = weaker reporter binding. Put shortly:
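Apparent KD, taken as the median over clusters for each design, was obtained by curve-fitting normalised cluster fluorescence. Designed RNA switches had been transcribed on Illumina chips by stalled E. coli RNA polymerase and titrated with SNAP-549-labelled MS2 coat protein, doubling from 0.7 or 1.5 nM to 3 µM.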

Setting [1] is: input ligand: microRNA oligo, concentration not stated.
The mark [2] stands for this setting: Eterna round: R95, input ligand: FMN 200 uM.
Setting [3] is: Eterna round: R95, input ligand: microRNA oligo, concentration not stated.
The mark [4] stands for this setting: Eterna round: R95, input ligand: none.

With “UAGUGAUUGCAAGGAUAUGCUAGUUUUUAUUUGUGUUUGAUAACAAACAUGAGGAUCACCCAUGUGCAGAAGGUGCUAGAUAUG [JR_SSNG2_Sub079] (Eterna round: R96, puzzle: Same State NG 2)”, the “apparent KD of MS2 coat protein” value under setting [1] was found to be 348 nM.

As to “UAGUUACUAUCUCAGGAUAUCAUGUCAAAGACAUGAGGAUCACCCAUGUACCAGGAAACUGGUUAUGAGAAGGGAGAUAGUAACA [Mat - Same State 2 - Mod - D56] (puzzle: Same State 2)”, the “apparent KD of MS2 coat protein” value runs as follows: under setting [2], 78.7 nM; under setting [3], 34.2 nM; under setting [4], 38.6 nM.

Consider “UAUCCAUAGAUAGGAUAUCAGUAUACAUGAGGAUCACCCAUGUUAUACUUGGUUUUAAGUUAGUCUGAGAAGGAUCUUGAUGAA [SameState NG2 #4] (Eterna round: R96, puzzle: Same State NG 2)”, for which the “apparent KD of MS2 coat protein” value reads like this: (input ligand: FMN 200 uM) 12.6 nM; under setting [1], 11 nM; (input ligand: none) 12.9 nM.

As for “UAUCGUUUGAUAGGAUAUCGCUAUACAUGAGGAUCACCCAUGUUUACCACGCUGGUUUUUCAUACCGAGAAGGAUUCUGAUGAC [salish99_SSNG02_r04_006] (Eterna round: R96, puzzle: Same State NG 2)”, the “apparent KD of MS2 coat protein” value runs as follows: (input ligand: FMN 200 uM) 38.3 nM; under setting [1], 31.5 nM; (input ligand: none) 27.7 nM.

As for “UAUUAAUCUGUAGGAUAUCUAGGAUAUGGACGAGGAUCACCCGAGCAGCAUCAGCGCACCAGAGGAGAGAAGGACGCUUUGGUG [pwkr ssNG2 2F5 2FMN.2] (Eterna round: R96, puzzle: Same State NG 2)”, the “apparent KD of MS2 coat protein” value (input ligand: FMN 200 uM) came out at 325 nM, the “apparent KD of MS2 coat protein” value under setting [1] turned out to be 208 nM and the “apparent KD of MS2 coat protein” value (input ligand: none) was determined as 367 nM.

Regarding “UAUUUAAUCGUAGGAUAUAGAAUGAAAUUUGUACUAGAAGGACGUUACAUGAGGAUCACCCAUGUGGUAAGUGGGACAUAGUUU [JR_SSNG1_Sub036] (Eterna round: R96, puzzle: Same State NG 1)”, the “apparent KD of MS2 coat protein” value by setting is: (input ligand: FMN 200 uM) 141 nM; under setting [1], 84.5 nM; (input ligand: none) 82.2 nM.

Regarding “UCGAGCGUACUUGCAGACAUGAGGAUCACCCAUGUAAAUGGGAAGGAUAUGGUACCGUUUCGGUACCAGAAGGUCCUGGGUGCU [salish99_SSNG3_r04_307] (Eterna round: R96, puzzle: Same State NG 3)”, the “apparent KD of MS2 coat protein” value amounted to 329 nM (input ligand: FMN 200 uM), 1090 nM under setting [1] and 984 nM (input ligand: none).

Regarding “UCUGAUGCCGUAGGAUAUCUAGGAUAUGGACGAGGAUCACCCGAGCAGCAUCAGCGCACCAGAGGAGAGAAGGACGCUUUGGAA [pwkr ssNG2 2F5 2FMN.21] (Eterna round: R96, puzzle: Same State NG 2)”, the “apparent KD of MS2 coat protein” value runs as follows: (input ligand: FMN 200 uM) 438 nM; under setting [1], 274 nM; (input ligand: none) 1190 nM.

As for “UCUUGGUUUUUGCUCGUUUUUUGUGUUGAACAUGAGGAUCACCCAUGUAUUGUACAAUCCAGUUUAAUAAUGGUCCA [Mod of one of JR's submissions 2] (puzzle: Sensor for hsa-mir-208a)”, the “apparent KD of MS2 coat protein” value under setting [2] was 55 nM, the “apparent KD of MS2 coat protein” value under setting [3] is 51 nM and the “apparent KD of MS2 coat protein” value under setting [4] was determined as 61.7 nM.

As to “UCUUGGUUUUUGCUCGUUUUUUGUGUUGAACAUGAGGAUCACCCAUGUAUUGUACAAUCCGAUUUAAUAAUGGUCCG [JMF 50] (puzzle: Sensor for hsa-mir-208a)”, the “apparent KD of MS2 coat protein” value runs as follows: under setting [2], 42.5 nM; under setting [3], 48.4 nM; under setting [4], 46.4 nM.

“UCUUGGUUUUUGCUCGUUUUUUGUGUUGAACAUGAGGAUCACCCAUGUAUUGUACAAUCCGGUUUAAUAAUGGUCCG [JMF 51] (puzzle: Sensor for hsa-mir-208a)”: the “apparent KD of MS2 coat protein” value is, setting by setting: under setting [2], 35.2 nM; under setting [3], 26.7 nM; under setting [4], 36.3 nM.

For the sequence “UCUUGGUUUUUGCUCGUUUUUUGUGUUGAACAUGAGGAUCACCCAUGUAUUGUACAGUCCAGUUUGAUAAUGGUCCG [JMF 56] (puzzle: Sensor for hsa-mir-208a)”, the “apparent KD of MS2 coat protein” value is, setting by setting: under setting [2], 39 nM; under setting [3], 33.3 nM; under setting [4], 44.3 nM.

In the case of “UCUUGGUUUUUGCUCGUUUUUUGUGUUGAACAUGAGGAUCACCCAUGUAUUGUACGGUCCGAUUUGAUAGUGGUCCG [JMF 20] (puzzle: Sensor for hsa-mir-208a)”, the “apparent KD of MS2 coat protein” value by setting is: under setting [2], 26.1 nM; under setting [3], 15.7 nM; under setting [4], 27 nM.

These data come from the supplement of paper PMC9170038.
